Experimental findings from patent US9969998B2, “Compositions of adenosine deaminase-2 (ADA2), variants thereof and methods of using same” (Halozyme, Inc., priority 2014, dated 2018) are described below.

The test system of one data set is NK/T cells. Briefly: Adenosine-mediated inhibition of NK/T cell proliferation (Cell Titer Glow). The class given is cell-based, human. The settings on record: 5 days. The method, then:
A mixture of NK and T cells (NK/T) were prepared from healthy donor's peripheral blood mononuclear cells (PBMC). Briefly, 10×10^7 HumanPBMCs were cultured for 6-7 days in Stem cell growth medium (SCGM; Order No. 20802-0500, CellGenix, Freiburg, Germany) with 5% human serum from donors with blood type AB (human AB serum; Cat. No. 35-060-C1, Mediatech, Mannassas, Va.) in the presence of 20 ng/mL anti-CD3 eBioscience, San Diego, Calif.; Cat. No. 16-0039) and 500 IU/mL recombinant human interleukin 2 (rhIL-2; Cat. No. 200-02, PeproTech, Rocky Hill, N.J.). The cells were then cultured for an additional 2-3 weeks in SCGM in the presence of 500 IU/mL rhIL-2. NK/T cells cultured for 2-4 weeks were used in experiments.
To test the adenosine-mediated inhibition of NK/T cells proliferation, NK/T cells (10,000 cells/well) were plated in a 96 well white plate with clear bottoms in 200 μL volume. The cells were treated with 20 μL adenosine (SKU No. A925, Sigma Aldrich) at concentrations resulting from a 3-fold dilution series starting at 1 mM, i.e. 1 mM, 300 μM, 100 μM, 30 μM, 10 μM, 3 μM, 1 μM, 0.3 μM and 0.1 μM. The NK/T cells were allowed to grow for 5 days in a humidified tissue culture incubator at 37° C. with 5% CO2. After 5 days of treatment, the cells were centrifuged in a 96 well plate at […] for 5 min. 100 μL of medium was removed from each well of cells, followed by addition of 100 μL of Cell Titer Glow (CTG) reagent (Cat. No. G7570, Promega, Madison, Wis.) and incubated at room temperature for 15 min before measuring luminescence on the SpectraMax M3 plate reader according to the manufacturer's instructions. The mean cell survival (%) was determined by comparison of the measured luminescence to control cells not treated with adenosine

Data set [1] in a line: Adenosine deaminase (ADA) enzymatic activity assay kit. The class given is biochemical.
The nature of data set [2]: Heparin binding capture ELISA (biotin-heparin on streptavidin plate). The settings on record: PEGylated and non-PEGylated forms (Table 22). The method, then:
Heparin binding of PEGylated rHuADA2 or variants was assessed by capture ELISA. Binding of rHuADA1 was assessed as a negative control. 100 μL of 0.2 mg/mL biotin-heparin (Sigma-Aldrich, St. Louis, Mo.; Cat No. B9806-10MG) was added to a streptavidin coated 96-well plate (Thermo Fisher Scientific, Rockford, Ill.; Cat. No. 15520), and incubated at room temperature for 1 hour. The plate was washed 6 times with PBS. Then, 150 μL of […] rHuADA2 was added to the heparin coated plate, titrated in 3× serial dilutions, and incubated at room temperature for 2 hours. The plate was then washed 6 times with PBS. A 1000× dilution of goat HRP-anti-FLAG pAb (Abcam, Cambridge, UK; Cat. No. Ab1238) was added to the ELISA plate and incubated at room temperature for 1 hour. The ELISA plate was then washed 6 times with phosphate buffered saline with Tween (PBST) and developed with the 3,3′,5,5′-Tetramethylbenzidine (TMB) substrate solution (Pierce, Thermo Fisher Scientific, Rockford, Ill.) according the manufacturer's instructions and reading the optical density at 450 nm (OD450) on a plate reader.

A short description of data set [3]: Thermal stability by differential scanning fluorimetry (DSF). The class given is physicochemical. The settings on record: 0.1-1 mg/mL protein. The method, then:
The stability of the rHuADA2 WT and variants was measured by differential scanning fluorimetry (DSF) at increasing temperatures. DSF measures conformational stability, which correlates with thermal stability. The melting temperature (Tm) in DSF is defined as the midpoint of the protein unfolding transition.
Non-PEGylated WT rHuADA2, non-PEGylated rHuADA2 variants, and PEGylated forms of WT rHuADA2 and rHuADA2 variants were prepared at concentrations of 0.1-1 mg/mL and mixed with the ROX™ protein thermal shift dye (Applied Biosystems, Carlsbad, Calif.; Cat. No. 4461146) to a final dye concentration that corresponds to a 125-fold dilution of the stock ROX™ solution. Protein samples were then loaded into 96-well plate at a volume of 20 μL/well in triplicate. A ViiA7 RT-PCR System (Applied Biosystems, Carlsbad, Calif.) was used to measure the shift in fluorescence as the temperature of the samples were increased. The reactions were subjected to the following steps: incubation at 25° C. for 2 min; ramping of temperature from 25 to 99° C. at a rate of 0.05° C. per second; followed by a 99° C. incubation for 2 min. The wavelengths used for emission and excitation were 623 nanometers (nm) and 580 nm, respectively.
(In general: In DSF a fluorescence change marks the thermal transition of the protein.)

For data set [4] the following is noted: mouse, in vivo, iv, 7.5 mg/kg.
Source text: Fifty four (54) male BALB/c mice were divided into six (6) dosing groups, and were further divided into three (3) groups each for sampling of blood at different time points. Thus, the mice were randomized into eighteen (18) groups total. Mice were weighed prior to the start of the study, and randomized into the 18 groups based upon their body weights. In each sampling group, three groups of (3) mice were used for dosing each test article to prevent oversampling of the blood from the animals. For measurement of baseline ADA2 levels, a blood sample was obtained from 12 randomly chosen mice and plasma was prepared using the anti-coagulant potassium (K3) ethylene diamine tetraacetic acid (K3-EDTA). All blood was collected by submandibular venipuncture.
Each mouse was injected by intravenous tail-vein injection with a 7.5 mg/kg dose of one of six ADA2 test article as set forth in Table 24, i.e. rHuADA2-K374D (K371D by mature numbering), PEG-rHuADA2-K374D (PEG-K371D by mature numbering), rHuADA2-R23E (R20E by mature numbering), PEG-rHuADA2-R23E (PEG-R20E by mature numbering), or WT ADA2 and PEG-WT ADA2.
Blood was collected at designated sampling time points from appropriate groups of mice as indicated below in Table 24 and kept on ice until plasma preparation. Plasma was prepared by centrifuging the blood (500×g for 5 min at 4° C.), transferring the plasma to a fresh tube and immediately freezing at −80° C. until the adenosine deaminase activity assay. Adenosine deaminase activity was determined as described in Example 4. The half-life, or time taken for the activity of ADA2 proteins to be reduced by half, was calculated. Also, total exposure was measured by calculating the Area Under the Concentration-time Curve (AUC).
A short description of data set [5]: Kinetic assessment of adenosine deaminase activity (ammonia assay, Michaelis-Menten). The class given is biochemical. Particulars: for Km / Vmax / kcat: [E] = 8.5 nM; for kcat: kcat=Vmax/0.0085/60. In outline:
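Coupled ammonia assay: rHuADA2 WT or variants (1 μg/mL, 17 nM in 2× mix) with adenosine 20 μM–20 mM, α-ketoglutarate, NADPH and GDH, at pH 7.6 or pH 6.5 (PIPES), room temperature. Michaelis-Menten fit gave Km, Vmax, kcat, kcat/Km.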

The test system of data set [6] is adenosine in tumor extracellular matrix. Briefly: Adenosine in MH194+PSC4 tumor extracellular matrix (microdialysis, LC/MS). The class given is in vivo, mice. Particulars: for Adenosine concentration in ECM, Mean: n = 8; for Adenosine concentration in ECM, individual tumors: single animal values; for adenosine concentration in tumor ECM: 0.03 mg/kg. The method, then:
To assess the effects of PEGADA2 on adenosine in tumor extracellular matrix, mice bearing peritibial MH194+PSC4 tumors received vehicle, the polypeptide whose sequence is set forth in SEQ ID NO:20, which contains the amino acid replacement K374D (Zavialov numbering; K371D mature numbering), at 0.03 mg/kg, or the polypeptide whose sequence is set forth in SEQ ID NO: 273, which contains the amino acid replacements R222Q/S265N (Zavialov numbering; R219Q/S262 mature numbering), at 0.03 mg/kg, 24 or 48 hours prior to microdialysis. Each of the polypeptides were PEGylated as described above in Examples 8 and 22). The mice were anesthetized using isofluorane, and a heating pad was used to maintain body temperature. A small incision was made on the tumor. A microdialysis probe with 55,000 Da molecular weight cut-off (CMA, Stockholm, Sweden) was inserted into the tumor, via a guided cannula. The length of the microdialysis probe used in this study was 10 mm. Once the probe was in position, the cannula was withdrawn leaving the probe completely embedded in the tumor tissue. Dulbecco's phosphate buffered saline (DPBS; Thermo Fisher Scientific) with ADA inhibitors (Pentostatin and 5-iodotubercindin) was perfused through the probe at a flow rate of 1 μl/min for 30 minutes. Then the samples were collected at a flow rate of 0.5 μl/min for 60 minutes. Microdialysis perfusates were analyzed by Liquid chromatography-mass spectrometry (LC/MS) at MicroConstants (9050 Camino Santa Fe, San Diego, Calif. 92121).

Substitutions are numbered along the chain they refer to. Names may count otherwise. “And” between values parts separate entries of the source, which are not always exact repeats. Equal values may be shown once.

By IC50 is commonly meant the concentration at which inhibition is half-maximal. In the data set with NK/T cells (Homo sapiens, NKT, 120 h), `Nc1ncnc2c1ncn2[C@@H]1O[C@H](CO)[C@@H](O)[C@H]1O` [Adenosine, adenosine] displayed an IC50 of 16.2 µM. The “Mean Cell survival (%)” value in the data set on NK/T cells (adenosine 0.1 μM) is 106.67%; in the data set with NK/T cells (adenosine 0.3 μM) it was 101.19%; in the data set with NK/T cells (adenosine 1 μM) it was 121.11%; in the data set on NK/T cells (adenosine 3 μM) it was 110.07%; with NK/T cells (adenosine 10 μM), 70.33%; in the data set with NK/T cells (adenosine 30 μM), 36.84%. The “Mean Cell survival (%)” value in the data set with NK/T cells (adenosine 100 μM) stood at 26.01%; in the data set with NK/T cells (adenosine 300 μM), 13.65%; in the data set on NK/T cells (adenosine 1000 μM), 15.82%.

B1: PEG-WT ADA2: WT rHuADA2 PEGylated with linear PEG-20K (conjugate, UniProt Q9NZK5 30-511, looked up)
Adenosine deaminase 2: IDETRAHLLLKEKMMRLGGRLVLNTKEELANERLMTLKIAEMKEAMRTLIFPPSMHFFQAKHLIERSQVFNILRMMPKGAALHLHDIGIVTMDWLVRNVTYRPHCHICFTPRGIMQFRFAHPTPRPSEKCSKWILLEDYRKRVQNVTEFDDSLLRNFTLVTQHPEVIYTNQNVVWSKFETIFFTISGLIHYAPVFRDYVFRSMQEFYEDNVLYMEIRARLLPVYELSGEHHDEEWSVKTYQEVAQKFVETHPEFIGIKIIYSDHRSKDVAVIAESIRMAMGLRIKFPTVVAGFDLVGHEDTGHSLHDYKEALMIPAKDGVKLPYFFHAGETDWQGTSIDRNILDALMLNTTRIGHGFALSKHPAVRTYSWKKDIPIEVCPISNQVLKLVSDLRNHPVATLMATGHPMVISSDDPAMFGAKGLSYDFYEVFMGIGGMKADLRTLKQLAMNSIKYSTLLESEKNTFMEIWKKRWDKFIADVATK
modifications: linear PEG-20K
notes: WT rHuADA2 PEGylated with linear PEG-20K
Regarding B1, the “adenosine deaminase activity mU/mL” value in data set [1] (PEGylated and non-PEGylated forms (Table 23)) came out at 124.2 mU/mL. The “% of WT adenosine deaminase activity” value in data set [1] (Table 23) is on record as 102.2%. Besides, the “Average OD450, heparin binding capture ELISA” value in data set [2] was 0.75. Further, the “Tm, melting temperature by DSF” value in data set [3] was 68.81 °C. Moreover, in data set [4], the “AUC (mU * h)/mL” value was 1,444,000 (mU * h)/mL, the “Half life slow (t1/2)” value worked out at 13.6 h, the “Percent increase in AUC compared to WT ADA2” value stood at 4291% and the “Percent increase in t1/2 compared to WT ADA2” value was found to be 1078%.

B2: R222Q/S265N: ADA2 combination variant SEQ ID NO:273 (protein)
chain: B1 Adenosine deaminase 2 with R219Q, S262N
modifications: human ADA2 R219Q/S262N, mature numbering
In general, Km refers to the concentration of substrate that gives half-maximal velocity. What is called Vmax is the rate approached at saturating substrate. As usually defined, the kcat is the maximal rate divided by the concentration of active sites. As to B2, in data set [5] (pH 6.5), the “fold higher catalytic efficiency (kcat/Km) compared to the WT ADA2” value worked out at 8.2 fold, the “fold lower Km compared to the WT ADA2” value amounted to 5.0 fold, the Km was 800 µM and the Vmax is 56.75 µM/min. In addition, in data set [5] (pH 6.5), the kcat amounted to 111.27 s⁻¹. For the same molecule, in data set [5] (pH 7.6), the “fold higher catalytic efficiency (kcat/Km) compared to the WT ADA2” value is listed as 15 fold, the “fold lower Km compared to the WT ADA2” value stood at 4.7 fold, the Km was determined as 1100 µM and the Vmax was determined as 87.79 µM/min. Besides, the kcat in data set [5] (pH 7.6) worked out at 172.14 s⁻¹. Moreover, in data set [6] (24 hours after 0.03 mg/kg), the “Adenosine concentration in ECM, Mean” value worked out at 6.88 µM; the “Adenosine concentration in ECM, individual tumors” value was 0.08 µM and 20.54 µM and 1.08 µM and 0.62 µM and 4.94 µM and 21.48 µM and 0.48 µM and 5.80 µM. The “adenosine concentration in tumor ECM” value in data set [6] (24 hours post treatment) was found to be 6.9 µM. In addition, in data set [6] (48 hours after 0.03 mg/kg), the “Adenosine concentration in ECM, Mean” value stood at 9.77 µM; the “Adenosine concentration in ECM, individual tumors” value is 13.06 µM and 1.96 µM and 20.36 µM and 20.62 µM and 0.35 µM and 4.15 µM and 14.26 µM and 3.43 µM. For the same molecule, in data set [6] (48 hours post treatment), the “adenosine concentration in tumor ECM” value was determined as 9.8 µM.
